pKi: −log10 of the molar value.
What was measured:
[1] = biological target: insect cell-produced and purified GST-cyclin A/Cdk2 (kinase reactions, ~3 nM) (UniProt P20248); experiment: kinase inhibition: purified proteins, ~3 nM GST-cyclin A/Cdk2, Rb-C phosphorylation, non-linear least squares (FIG. 7F)
[2] = system: 4060 peptide (eighteen-residue peptide, residues 40-57 of human Skp2)

Chain of purified p27 (GST cleaved off by thrombin) (P46527 whole entry): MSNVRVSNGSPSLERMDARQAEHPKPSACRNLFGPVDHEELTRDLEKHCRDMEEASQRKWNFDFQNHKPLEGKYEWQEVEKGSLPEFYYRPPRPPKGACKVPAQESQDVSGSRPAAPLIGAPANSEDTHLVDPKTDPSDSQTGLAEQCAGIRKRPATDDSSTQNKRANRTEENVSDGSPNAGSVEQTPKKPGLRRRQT

pKi [1]	Substance	IP-kinase assay, phosphorylation of Rb-C by cyclin A/Cdk2 [2]	IP-kinase assay, phosphorylation of Rb-C by cyclin A/Cdk2 (Peptide RxL)
8.70	purified p27 (GST cleaved off by thrombin) (from UniProt P46527 1-198) (other; other documents disagree on this pair)		
	myc-cyclin A/Cdk2 (293T cell extracts transfected with myc-cyclin A and Cdk2)	the 4060 peptide did not	the RxL peptide inhibited the kinase activity of cyclin A/Cdk2 towards Rb-C as expected

— patent publication US8173604
